Columns and labels:
Experiment in all cases: cell-based or functional assay
[1] = target: 980601 (BX): Purified preparation of Danisco's new bacterial xylanase expressed in E. coli (Bacillus subtilis) (UniProt P18429)
[2] = target: 980603 (Röhm): Purified preparation of Frimond's Belase xylanase (identical to Röhm's) (Bacillus subtilis)
[3] = target: 980903 (XM1): Purified mutant of Bacillus sub. wild type xylanase expressed in E. coli

- Difference, % (average rest activity of 980601 against 980603) [1]: 25.6%
- Inhibation, % (flour 98002) [1]: 67%
- Inhibation, % (flour 98026) [1]: 75%
- OD 590 (+inhibitor), xylanase activity on Xylazyme [1]: 0.165 OD 590
- Residual activity, % [1]: 24.4%
- Rest act., % (Avg) [1]: 29%
- Rest act., % (flour 98002) [1]: 33%
- Rest act., % (flour 98026) [1]: 25%
- Vmax (Lineweaver-Burk plot, relative OD 590, with and without inhibitor) (relative OD 590) [1]: 1.19
- Inhibation, % (flour 98002) [2]: 60.8%
- Inhibation, % (flour 98026) [2]: 61.3%
- Rest act., % (Avg) [2]: 39%
- Rest act., % (flour 98002) [2]: 39.2%
- Rest act., % (flour 98026) [2]: 38.7%
- difference in inhibition between XM1 and XM2 [3]: 250%
- residual activity of XM1 relative to rest activity of XM2 [3]: 2.5 times
Substance: endogenous endo-β-1,4-xylanase inhibitor from wheat flour

Reference: patent publication US20040234998A1
